Reference: patent US20250034594A1, “RNA-GUIDED GENOME RECOMBINEERING AT KILOBASE SCALE” (THE BOARD OF TRUSTEES OF THE LELAND STANFORD JUNIOR …, priority 2021, published 2025)

Columns and labels:
Assay type in all cases: cell-based
[1] = system: gene editing with Cas9; test: Screen of 322 new SSAP proteins, gene editing activity with Cas9 (Table 5); design: Cas9 with SSAP activity: scale not given here
From the text: (§1) 322 new SSAP proteins were identified from sequence data, synthesized, and screened for activity with Cas9 and dCas9. Gene editing activities are shown below in Table 5, followed by amino acid sequences of the proteins.

[2] = system: gene editing with dCas9; test: Screen of 322 new SSAP proteins, gene editing activity with dCas9 (Table 5); design: dCas9 with SSAP activity: scale not given here
From the text: as §1

[3] = system: gene editing with Cas9 and dCas9; test: Screen of 322 new SSAP proteins, activity across all experiments (Cas9 and dCas9, Table 5); design: scale not given here
From the text: as §1

Molecule | Cas9 with SSAP activity [1] | Cas9 with SSAP activity (normalized) [1] | dCas9 with SSAP activity [2] | dCas9 with SSAP activity (normalized) [2] | Activity across all experiments [3]
SSAP_21: SEQ ID NO: 190; Cellulosilyticum lentocellum (protein, listed as Cellulosilyticum lentocellum) SDKKELVLKETHSRLNQLLATKMEAMPKDFNQTRFLQNCMTVLQDTKGIENCHPVSIARTLLKGAFLGLDFFQRECYAIPYGGELQFQTDYKGETKMAKKYSIRDIKDIYAKVVRKGDEFKEEIVAGQQVVDFKPLPFNDAEIIGAFAVVLYQDGGMEYETMSTKQIEGIRDNFSKMKNGLMWTKTPEEAYKKTVLRRLTKKIEKDFASIDQAKAYEESSDMQFKQDEQKQDAKDPFADAVDVEFTEETEGQVRLDGEADGAK | −0.774 | −0.320 | −3.610 | −0.537 | −2.192
SSAP_267: SEQ ID NO: 436; Clostridium combesii (protein, listed as Clostridium combesii) ANTKAIVLQETANNLNTLLKAKVKALPKGFNETRFLQNCMTVLQDTRNIEKCNSVSVARTMLKGAFLGLDFFSKECYAIPYNDYKTGKCHLEFQTDYKGERKLMKQYSVRPIKDIYAKVVREGDKFEEIIEKGIPTINFRPKPFSNEKIIGVFAVVLFEDGGLLYETMSVEDVEKIKVGFAKRDKEGNYSKAWTATPEEMYKKTVIRRLRKSVELEFDSVEQQKTYEEASEFDVKRDEEVKEEASPFENVDFEEAEEGNTIEAKQE | −0.224 | −0.145 | −3.571 | −0.553 | −1.897
SSAP_285: SEQ ID NO: 454; Chitinophaga lutea (protein, listed as Chitinophaga lutea) SNVNAPAAPVKSKIEVLKDIMNAPSVQEQFQNALRENSGVFVASVIDLFNSDTYLQNCEPKQVVMECLKAATLKLPINKNLGFAYVVPYKSNGKQIPQFQIGYKGYIQLAMRTGQYRIINADKVYEGEYRTKNKLTGEFDLSGTATSETVVGYFAHIEMLNGFAKTLYMTKEKVAAHAKKYSKSFGKETSPWHTEFDAMALKTVLRNLLSHYGYLSVEMMGAMNADIESDQVGSEVSQTINDKANKQEMTFDDAEVVDDDEKEQNPI | −1.178 | −0.366 | −3.704 | −0.608 | −2.441
SSAP_160: SEQ ID NO: 329; Veillonellaceae bacterium DNF00626 (protein, Veillonellaceae bacterium DNF00626) KTTGGLQQQQQQQAQALQNGGTTLKGYLQAMMPEIKKALPTVMTPERFTRIVMTTISTNPALQNCTPQSFLGAVMQAAQLGVEPNTPLGQAYLIPYGNQVQFQLGYKGLIDLAYRSGEVQSLQAHEVYQNDTFEYELGLNPKLKHIPALTNRGDVILYYAVIKFKNGGEGFEVMSKEDVEAFAKSKSKTYGRGPWQTDFDEMAKKTVLKKVLKYAPMKTDFIRAVATDETVKSSVAEQMADLPDETVTIDTEAQVVVDKETGEVKS | 1.888 | 0.942 | −3.690 | −0.763 | −0.901
SSAP_121: SEQ ID NO: 290; Bacillus sp. JAS24-2 (protein, listed as Bacillus sp.) ATNKDVKNQLANRKASAPVTTEQTVEAYMKKMGPKMAEVLPKHMDMDRMSRIALTTIRTNPKLLECSVPSLMGAVMSAVQLGLEPGLLGHCYILPYKSEATFIIGYKGMIDLARRSGHIQSIYAHAVYENDEFEYELGLHPQLKHKPSFGDRGEFIGAYAVAHFKDGGHQMEFMPKSEIEKRRGRSASANSNYSPWKTDYEEMAKKTVVRYMFKYLPISIEVQSQAQQDEVVRKDITEEPEFIEVEQQTEGDGQGDFVIEGE | −0.279 | −0.275 | 1.664 | 1.531 | 0.692
SSAP_1: SEQ ID NO: 172 (protein) ATNESLKNQLSTKKETGLGSAGNTIKGLMNSPAIKKRFEEVLKQRAPQYMSSIVNLVNSDINLKKCDQMSVVASCMVAATLDLPVDKNLGYAWVVPYGNKAQFQLGYKGYVQLALRTGQYKSINVIEIHEGELIDWNPLTEELKIDFSKKESDAVIGYAGYFELLNGFKKSTYWTKEQITKHKNKFSKSDFGWKKDFDAMARKTVLRNMLSKWGILSIEMQNAYTADQGIIKNEIIETGEVKENIEYIEADFESYEDNSIEEGGANE | −4.919 | −0.814 | −3.622 | −0.496 | −4.270
SSAP_133: SEQ ID NO: 302; Lacrimispora celerecrescens (protein, listed as Lacrimispora celerecrescens) SDVKQELEKRAAGGGSQSQSVKLTKNMTIVDMVKALEPEIKRALPSILTPERFTRMALSAINNTPKLGECTPMSFIAALMNAAQLGLEPNTPLGQAYLIPYKNKGVLECQFQLGYRGLIDLAYRNDRMQSIEAQVVYENDEFSYELGLHPSLTHRPSFDEPGEIRAFYAIFRLDNGGFRFEVMSKSYVDAYATKYSKAFTSDFSPWKNNYEGMAKKTVIKQLLKYAPIKSDFQKAITLDETVKTQLSIDMSEIRNECLPDTSENSEVA | −4.946 | −1.095 | −3.605 | −0.658 | −4.276
SSAP_225: SEQ ID NO: 394; Actinocrispum wychmicini (protein, listed as Actinocrispum wychmicini) SQTVTAAVAQRDNGAQALIAKYRTDFAQVLPSHLRPTTFVRLSQGLLRRNVKLAEAAERNPASFLAALLECARLGHDPGTDQFALVPFNDRKRNTVEVVGIEQYQGVIERMYRAGAVRSVKAEVVRAADPFEYAPDVMDRPGHKPNWFADRGELIGVYAYAEFFDGSTSRVVMMNRETVMAHKAKSRGATSEDSPWQAWEESMWLKTAVHELEKWVPTSSEDRRAARDGTADPAPVEVPRVADEVLDADLVEDDHADHPTATPTGDVR | −0.830 | −0.252 | −3.577 | −0.602 | −2.204
SSAP_108: SEQ ID NO: 277; Rummeliibacillus stabekisii (protein, listed as Rummeliibacillus stabekisii) ATTTELKEQMKQQAPAQTKKPKTIEDYMKQMAPAMAEALPKHMSVDRLTRLAMTTIRTTPALRQADVSSLLGAVMQAAQLGLEPGLLGQCYLLPFKNKKKAITEVQFIIGYKGMIDLARRSGHIQSIYSHAVFENDVFEYELGLEPKLKHTPTMSTDKGAFIGAYAVAHFKDGGHQFEFMSKADIEKRKGRSKAANSDYSPWLTDYEEMAKKTVIRHMWKYLPISVEMQEQVAYDEGVGRSIKDVTPEEDVFVQAPDEILEAEATEA | 0.069 | 0.068 | −3.682 | −0.539 | −1.807
